Experimental data as given in patent publication US20160046944, “APTAMER TO IL-17 AND USE THEREOF” (THE UNIVERSITY OF TOKYO, published 2016).
Where a chain is given by its changes, count along the chain named.

T1: IL-17 (Homo sapiens, UniProt Q16552 Q16552:24-155)
T1 sequence: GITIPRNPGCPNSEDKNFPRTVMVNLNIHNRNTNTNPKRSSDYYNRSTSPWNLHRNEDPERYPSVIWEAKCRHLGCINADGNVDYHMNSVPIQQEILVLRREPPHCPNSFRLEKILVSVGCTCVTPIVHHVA

T2: IL-17 (IL-17A) (Homo sapiens, UniProt Q16552 Q16552:24-155)
T2 sequence: T1 sequence

B1: aptamer No. 82 (mixed)
mixed: GGGUAGCCGGAGGAGTCAGTAAUCGGUACCC
modifications: 2'-OMe (M), 2'-F (F), PS (S) as marked; uppercase DNA [2'-OMe: 1-5,7,8,10,11,13,14,21-31; 2'-F: 17,18; PS: 6,15,19; DNA: 9,16,20]
B2: aptamer No. 83 (mixed)
RNA: B1 mixed with T16U, T20U
modifications: 2'-OMe (M), 2'-F (F), PS (S) as marked; uppercase DNA [2'-OMe: 1-5,7,8,10,11,13,14,17,21-26,28-31; 2'-F: 16,18,20,27; PS: 6,15,19; DNA: 9]
B3: aptamer No. 84 (mixed)
RNA: B1 mixed with T16U, T20U
modifications: 2'-OMe (M), 2'-F (F), PS (S) as marked; uppercase DNA [2'-OMe: 1-5,7,8,10,11,13,14,21-31; 2'-F: 16,17,18,20; PS: 6,15,19; DNA: 9]
B4: aptamer No. 85 (mixed)
RNA: B1 mixed with T16U, T20U
modifications: 2'-OMe (M), 2'-F (F), PS (S) as marked; uppercase DNA [2'-OMe: 1-5,7,8,10,11,13,14,21-26,28-31; 2'-F: 16,17,18,20,27; PS: 6,15,19; DNA: 9]
B5: aptamer No. 86 (mixed)
mixed: B1 mixed with A21G
modifications: 2'-OMe (M), 2'-F (F), PS (S) as marked; uppercase DNA [2'-OMe: 1-5,7,8,10,11,13,14,17,21-31; 2'-F: 18; PS: 6,15,19; DNA: 9,16,20]
B6: aptamer No. 87 (mixed)
mixed: B1 mixed with A21G
modifications: 2'-OMe (M), 2'-F (F), PS (S) as marked; uppercase DNA [2'-OMe: 1-5,7,8,10,11,13,14,17,22-31; 2'-F: 18; PS: 6,15,19; DNA: 9,16,20]
B7: aptamer No. 89 (mixed)
mixed: B1 mixed
modifications: 2'-OMe (M), 2'-F (F), PS (S) as marked; uppercase DNA [2'-OMe: 1-5,7,8,10,11,13,14,17,22-31; 2'-F: 18; PS: 6,15,19; DNA: 9,16,20]
B8: aptamer No. 90 (mixed)
mixed: B1 mixed
modifications: 2'-OMe (M), 2'-F (F), PS (S) as marked; uppercase DNA [2'-OMe: 1-5,7,8,10,11,13,14,17,21,23-31; 2'-F: 18; PS: 6,15,19; DNA: 9,16,20]
B9: aptamer No. 91 (mixed)
mixed: B1 mixed
modifications: 2'-OMe (M), 2'-F (F), PS (S) as marked; uppercase DNA [2'-OMe: 1-5,7,8,10,11,13,14,17,23-31; 2'-F: 18; PS: 6,15,19; DNA: 9,16,20]
B10: aptamer No. 92 (mixed)
RNA: B1 mixed with T16U, T20U
modifications: 2'-OMe (M), 2'-F (F), PS (S) as marked; uppercase DNA [2'-OMe: 1-5,7,8,10,11,13,14,22-26,28-31; 2'-F: 16-18,20,27; PS: 6,15,19; DNA: 9]
B11: aptamer No. 93 (mixed)
RNA: B1 mixed with T16U, T20U
modifications: 2'-OMe (M), 2'-F (F), PS (S) as marked; uppercase DNA [2'-OMe: 1-5,7,8,10,11,13,14,21,23-26,28-31; 2'-F: 16-18,20,27; PS: 6,15,19; DNA: 9]
B12: aptamer No. 94 (mixed)
RNA: B1 mixed with T16U, T20U
modifications: 2'-OMe (M), 2'-F (F), PS (S) as marked; uppercase DNA [2'-OMe: 1-5,7,8,10,11,13,14,23-26,28-31; 2'-F: 16-18,20,27; PS: 6,15,19; DNA: 9]
B13: aptamer No. 53 (mixed)
mixed: B1 mixed
modifications: g(M)g(M)g(M)u(M)Ag(S)c(M)c(M)Gg(M)a(F)gg(M)a(M)gTc(F)a(F)g(S)Ta(M)a(M)u(M)c(M)g(M)g(M)u(F)a(M)CCC
B14: aptamer No. 27 (mixed)
mixed: B1 mixed with U27T
modifications: 2'-OMe (M), 2'-F (F), PS (S) as marked; uppercase DNA [2'-OMe: 1,2,3,4,7,8,10,13,14,21,23,24,25,26,28,29,30,31; 2'-F: 17; PS: 6]
B15: aptamer No. 28 (mixed)
mixed: B1 mixed with U27T
modifications: 2'-OMe (M), 2'-F (F) as marked; uppercase DNA [2'-OMe: 1,2,3,4,7,8,10,13,14,23,24,25,26,28,29,30,31; 2'-F: 17]
B16: aptamer No. 29 (mixed)
mixed: B1 mixed with U27T
modifications: 2'-OMe (M), 2'-F (F) as marked; uppercase DNA [2'-OMe: 1,2,3,4,7,8,10,13,14,21,22,23,24,25,26,28,29,30,31; 2'-F: 17]
B17: aptamer No. 31 (mixed)
mixed: B1 mixed with U27T
modifications: 2'-OMe (M), 2'-F (F), PS (S) as marked; uppercase DNA [2'-OMe: 1,2,3,4,7,8,10,13,14,23,24,25,26,29,30,31; 2'-F: 17; PS: 6]
B18: aptamer No. 32 (mixed)
mixed: B1 mixed with U27T
modifications: 2'-OMe (M), 2'-F (F) as marked; uppercase DNA [2'-OMe: 1,2,3,4,7,8,10,13,14,21,22,23,24,25,26; 2'-F: 17]
B19: aptamer No. 33 (mixed)
mixed: B1 mixed with U27T
modifications: 2'-OMe (M), 2'-F (F) as marked; uppercase DNA [2'-OMe: 1,2,3,4,7,8,10,13,14,21,23,24,25,26; 2'-F: 17]
B20: aptamer No. 37 (mixed)
mixed: B1 mixed with U27T
modifications: 2'-OMe (M), 2'-F (F) as marked; uppercase DNA; (NI) printed, likely (M) [2'-OMe: 1,2,3,4,7,10,13,14,23,24,25,26,28,29,30,31; 2'-F: 17; 8 printed (NI), likely 2'-OMe]
B21: aptamer No. 39 (mixed)
mixed: B1 mixed with U27T
modifications: 2'-OMe (M), 2'-F (F) as marked; uppercase DNA [2'-OMe: 1-4,7,8,10,13,14,22-26,28-31; 2'-F: 17]
B22: aptamer No. 47 (mixed)
mixed: B1 mixed
modifications: 2'-OMe (M), 2'-F (F) as marked; uppercase DNA [2'-OMe: 1-4,7,8,10,13,14,23-26,28; 2'-F: 11,17,18,27]
B23: aptamer No. 48 (mixed)
mixed: B1 mixed
modifications: 2'-OMe (M), 2'-F (F) as marked; uppercase DNA [2'-OMe: 1-4,7,8,10,13,14,23-26,28; 2'-F: 17,27]
B24: aptamer No. 49 (mixed)
mixed: B1 mixed
modifications: 2'-OMe (M), 2'-F (F) as marked; uppercase DNA; (PI) printed, likely (M) [2'-OMe: 1-4,7,8,10,14,23-26,28; 2'-F: 17,27; 13 printed (PI), likely 2'-OMe]

What follows are binders tested against T1, IL-17 (assay: SPR; IL-17 150 nM, aptamer 12.5 or 50 nM). Conditions: chain copies: 2.
Experimental: Whether the synthesized aptamers inhibit the binding of IL-17 and IL-17 receptor was evaluated by the surface plasmon resonance method.
For the measurement, BIAcore T100 manufactured by GE Healthcare Bio Sciences was used. […] As an analyte, IL-17 (150 nM) and each aptamer (12.5 or 50 nM) shown by Table 3 were mixed, maintained for 15 min and after that the mixture was flown.
With B1 the binding signal was 5.28 % IL-17/IL-17R binding remaining.
B2 was tested, and the binding signal was 33.5 % IL-17/IL-17R binding remaining.
For B3, the binding signal was 27.7 % IL-17/IL-17R binding remaining.
In the case of B4, the binding signal is reported as 27.8 % IL-17/IL-17R binding remaining.
B5 was tested, and the binding signal was 35.7 % IL-17/IL-17R binding remaining.
In the case of B6, the binding signal is reported as 32.4 % IL-17/IL-17R binding remaining.
B7 was tested, and the binding signal was 35.1 % IL-17/IL-17R binding remaining.
For B8, the binding signal was 41.2 % IL-17/IL-17R binding remaining.
For B9, the binding signal was 35.1 % IL-17/IL-17R binding remaining.
In the case of B10, the binding signal is reported as 31.6 % IL-17/IL-17R binding remaining.
With B11 the binding signal was 30.6 % IL-17/IL-17R binding remaining.
For B12, the binding signal was 29.3 % IL-17/IL-17R binding remaining.

Each binder was assayed against T2, IL-17 (IL-17A) (assay: cell_activity; IL-6 release, NIH3T3). Conditions: chain copies: 2.
Experimental: First, human IL-17 and the aptamer produced in Example 1-2 were pre-incubated at 37° C. for 30 min, and added to NIH3T3 cell (ATCC, CRL1658) together with mouse TNFα (2 ng/mL). Then, after incubation for 24 hr, the culture supernatant was collected, and the production amount of IL-6 was measured by ELISA method described below. The IL-17 inhibitory action of each aptamer was determined from the production amount of IL-6. For comparison with the aptamer of the present invention, a conventionally-known aptamer (aptamer No. 50) against IL-17 was used.
ELISA method for verifying IL-17 inhibitory action of aptamer: A microtiter plate for ELISA was coated with rat anti-mouse IL-6 antibody (BD Biosciences, 2 μg/mL; 100 μL/well) diluted with PBS, and incubated at 4° C. overnight. The next day, the microtiter plate was washed 3 times with PBS/0.05% Tween 20, and applied blocking with PBS/1% BSA (200 μL/well) at room temperature for 2 hr. Then, the plate was washed 3 times with PBS/0.05% Tween 20. Recombinant mouse IL-6 (BD Biosciences; 100 μL/well) serially diluted with PBS/1% BSA/0.05% Tween 20 or culture supernatants (100 μL/well) were added to the plate. After incubation at room temperature for 2 hr, the plate was washed 3 times with PBS/0.05% Tween 20. Then, 100 μL/well of biotin conjugated rat anti-mouse IL-6 antibody (BD Biosciences) was added to the plate at final dilution of 1/500, and the mixture was reacted at room temperature for 1 hr. After washing 3 times with PBS/0.05% Tween 20, 100 μL/well of alkaline phosphatase conjugated streptavidin was added at final dilution of 1/1000. After 30 min at room temperature, the plate was again washed 4 times with PBS/0.05% Tween 20, and a substrate (1-Step PNPP; Thermo Fisher Scientific Inc; 100 μL/well) was added. After 15 min, aqueous sodium hydroxide solution (2N: 50 μL/well) was added to stop the reaction, and the plate was read on a microtiter reader (Bio-Rad) by using a 405 nm filter.
In the case of B13, the IC50 is reported as 1.67 nM.

The binders below were run against T1, IL-17 (assay: SPR; IL-17R-Fc on chip). Conditions: chain copies: 2.
Experimental: Whether aptamers shown by aptamer Nos. 1-49 inhibit the binding of IL-17 and IL-17 receptor was evaluated by the surface plasmon resonance method.
For the measurement, BIAcore2000 manufactured by BIAcore was used. […] As an analyte, IL-17 (100 or 150 nM) and an aptamer (50 or 100 nM) shown by aptamer No. 1-49 were mixed, maintained for 15 min and after that the mixture was flown.
In the case of B14, the binding signal is reported as 13.3 % IL-17/IL-17R binding remaining.
With B15 the binding signal was 13.2 % IL-17/IL-17R binding remaining.
In the case of B16, the binding signal is reported as 13.3 % IL-17/IL-17R binding remaining.
For B17, the binding signal was 16.2 % IL-17/IL-17R binding remaining.
In the case of B18, the binding signal is reported as 13.2 % IL-17/IL-17R binding remaining.
For B19, the binding signal was 15.9 % IL-17/IL-17R binding remaining.
B20 was tested, and the binding signal was 15.5 % IL-17/IL-17R binding remaining.
B21 was tested, and the binding signal was 14.8 % IL-17/IL-17R binding remaining.
B22 was tested, and the binding signal was 17.6 % IL-17/IL-17R binding remaining.
With B23 the binding signal was 19.2 % IL-17/IL-17R binding remaining.
In the case of B24, the binding signal is reported as 19 % IL-17/IL-17R binding remaining.
